Measured values reported in a protein production outcome set (Wang et al. 2014).

Experiment: label from the status in PepcDB records

Sequence | protein production
MDDGQDAGRSGHRKAATAREGAEAMKPETPGGTAALAKGLTLLDMVADAPEPPRFAELLRASGLPKPTFARILRTLIAYGLVRQDEARGTYVLGQRFLEMSHKVWESFDLVSAATPELERLAAELGETVALCRLDGTMTQYLAERSPNGLSVRVEVGRRVPLHCTAPGKALLAFQDPAVGRALLDRLTLDLQTAKTITTLDALQADLTLTRARGYSISYEEHLPGVNSVAAPVMGRDNTPMGVLVALGPSSRLDSSNIHPAGRELIAAARRITGAAGAVAISSRPRPRSATGRPSAELSCILPWGAQLGESPVWHEGEDALYWVDILHPAVHRFDPATGRNETCETGKLVSAVIPVTGGRLLVASQDGVEWLDFASGRLTPFVSPEAGIADNRLNDAKCGPDGAIWVGSMRIDASKPTGALYRINANGASERKEGGIIVSNGLGWSPDGRTFYFVDTVPGLIHAYDCDPATGALSQRREFARIPVADGRPDGLAVDAEGGVWCAIWDGWCVRRYLPNGKLDQVIDMPVPRPSSIAFGGPDLSTLFITSARTRLPASTLADAPLSGGLFSCRPGISGARIAMFEG | failed
MDGSEDDPTIFSARCLPSDPRLWATVTNSYLGTRVYHDTIHINGVYNGAVGDTHRASLPSPLNVQLEAPAGTEQLTETFTLDTNTGSFLHTLEGPSFRASQRIYAHRVLPHVLVFSVSIARLTTGNKPITVPLRADFSPESPDLDLRVGPDFQGLRYLHGHVLNPEQPGEPQQEVHMLWMPVPPALTLGEEEKDRTWEFLTVVGSSQAEAQDCFAEALQLQTRGVLYTIHADSWGRLWAGCGLDVAGPLALRQALRGSLYYLFSELPQPGTQGFISHGLSPGGLSNGSKEECYWGHIFWDQDIWMFPNILMFHPEAARAILEYRVRTLGGALKNGQNLGYQGAKFAWESASTGLEVCPEDIYGTQEIHINGAVALAFQLYYYYTQDSKLFQEDGGWDVVSSVAEFWCSRVEWSSQDKMYHLKGVMPPDEYHSGVNNSVYTNVLVQNSLHFAAALAKDLGLPIRKQWLEVADRIKIPFDSEQNFHPEFDGYERGEEVKQADVVLLGYPVPFPLTPDIRRKNLETYEAVTSPQGPAMTWSMFAVGWMELRDPSRAQVHLSRSFANVTEPFKVWTENADGSGAVNFLTGMGGFLQAALFGCTGFRITEAGVTFDPLCPDLVSRVSVSGISYLGNKINFAFSKDSVTLEVTARAEPWAPLLEAELWPSLAHLPLTPGQKVSFPHSAGRIQRSSP | failed
MSLSRSEEMHRLTENVYKTIMEQFNPSLRNFIAMGKNYEKALAGVTYAAKGYFDALVKMGELASESQGSKELGDVLFQMAEVHRQIQNQLEEMLKSFHNELLTQLEQKVELDSRYLSAALKKYQTEQRSKGDALDKCQAELKKLRKKSQGSKNPQKYSDKELQYIDAISNKQGELENYVSDGYKTALTEERRRFCFLVEKQCAVAKNSAAYHSKGKELLAQKLPLWQQA | not failed
MKILKKIFQVIVKIINHCVPVDSRSLYFIPHPNCRTDKYDIINYSSDNVLVLLNYLLKKDSAEYYKIYVEIYDSSRISEYQEYIYGINPNIRCTFLCACVGRFFFNKVSFKDMLYAFFCFCRASKCFTATFYYDFSFKKRSQQIICLGYYTPFKDDYHMGDHSYDKFRNTTCNSFDYSIATSCLSARIISIDCGISYDKFKVLGFPRNDLLISKNNCNVIKREISKFAGYDVTKYIVYTPTFRDYETVTEGNLRSILGYVDCDLLKLSKILLKFNAALILKLHPLQNKTVLKKDLPKGILVFEQTYKYGLYDLLSFSDGMITDYTSTYFDFLLVNKPVIFNFYDIEEYRRVRGFSFEPIEFFCAGDIVYNYNELIDAVMGLLAGKDIHAEHRRHISLLMNQFQDDNSTKRICDIFLNEILEHHHHHH | failed
MADFKIVISDPQAPKEETVVKVKVVGDPEIKFDENVKEGFELPILKMNSKTAEKIKAVHGVATIRMYKPGTKDKVKITGKIIVDDNIPENEVRVNAEQLVNATGTNELEGELFRARAWQIRINDDRTKLLIGLKIGDEFDGSIVGLKNVKLKIRGGSDNSGFPMRPDVMGGVKKRVLLSGPPGFHPREKGERRRKMIRGNTITEDIVQINTVIKYV | failed
RKKEDKYDFRALGLAIKEARKKQGLTREQVGAMIEIDPRYLTNIENKGQHPSLQVLYDLVSLLNVSVDEFFLPASSQVKSTKRRQLENKIDNF | failed
TPLPHQLEVAQKVVEKMNGKAILADEVGLGKTVEAGLILKEYMIRGLAKKILILVPASLVSQWVKELQEKFLIPAVEQKKSYVWEQCDIVVSSIDTAKRSPHREIVLSIPYDLVIIDEAHKLKNSKTKNYEFVRNLVKKYCLLLTATPIQNRIEEIFNLVSLLKPGHL | failed
MDSVVSDVSDLVEPDEELKAWQTDRTRAPIATKIVVAGGFGAGKTTLVTAVSEITPLQTEALMTQASEDTDDLTGTPDKLTTTVAMDFGRITLDDDLVLYLFGTPGQQRFWFMWDDLVRGAIGAVVLADTRRLSDCFPALDYFESCGLPYVVAVNHFDGSEKFEPEDVREALTVPAHIPVMIMDARRRISVIETLLALVGHALEVSPELEHHHHHH | not failed
ASKAFYSAGDKLFQPGDDAVASMQTYSVAQFLQPFTLNPAKASSDYLGKWVKVRGVIVDIRRKSGIAGSYYFIVTMRDEQNKTDKRLTFNFGSHNSADVEALSNGSVATIVGQVHQVQDSTIPTLQNPKVVK | not failed
MQILEDFDGKALPKLETDRLILRQRTVGDVPAMFDYVCLEEVAYPAGLSPIASLEDEYDYFENRYYQNLEKAKLPSGYGITVKGSDRIIGSCAFNHRHEDDVFEICYLLHPDYWGHGYMTEAVAALIEVGFTLLNLHKIEIRCYDYNKQSRRVAEKLGFTLEATIRDRKDNQDNRCVNLIYGLLRSEWE | failed
MGHHHHHHSHMKMEHQNKRSPLHAAAEAGHVDICHMLVQAGANIDTCSEDQRTPLMEAAENNHLEAVKYLIKAGALVDPKDAEGSTCLHLAAKKGHYEVVQYLLSNGQMDVNCQDDGGWTPMIWATEYKHVDLVKLLLSKGSDINIRDNEENICLHWAAFSGCVDIAEILLAAKCDLHAVNIHGDSPLHIAARENRYDCVVLFLSRDSDVTLKNKEGETPLQCASLNSQV | failed
MAVYHLLLSSPPSLLLLPPSPRRPNLTLIRRIPAHPRLGNSTSLLSSSSPVIRKILVRSTLREDQPIASDSESSPTLLIGEDSAAFELGKQKLVSWVYFGVVLGVVLFILNVVWIDNSTGFGKSFIDAVSNISGSPEVAMLMLILIFAIVHSGLASLRDIGEKLIGERAFRVLFAGISLPLAMSTIVYFINHRYDGSQLWQLQGVPGVHEAIWVANFVSFFFLYPSTFNLLEVAAVDKPKMHLWETGIMRITRHPQMVGQIVWCLAHTLWIGNTVAASASLGLIAHHLFGAWNGDRRLAKRYGEDFESIKKRTSVIPFAAIFEGRQVLPEDYYKEFVRLPYLAITALTVGAYFAHPLMQGASFRLHW | failed
MGIFERYLSVWVGLSIILGVILGLWQPNIFQLITEFEIAHVNIVVAVFIWVMIYPMMVQIDFSSIQNVGKNPKGLVLTIIINWFVKPFTMAALGWLFFNYLFADLVDPESAQEYIAGMILLGVAPCTAMVFVWSQLTKGDPNYTLVQVSVNDVIMIFAFAPISAFLLGVSDIQVPWETLLISVLLYVLLPLIAGVVTRRMLNKGNDKVDAQKSAEASINADEETNTNTDSTNKSLDNLLATLKPWSVIGLLATVVLLFGFQANTIISEPQTIGLIAIPLMIQTYGIFIIAYLAAKWLKLPHNIAAPACLIGTSNFFELAVAVAISLFGLHSGAALATVVGVLVEVPVMLSLVYFINHTQNWFVEGG | failed
MTFEIVFVLLSLLGMMAALIADKMRPGMVLFSVVVLFLCVGILTPKEMLEGFSNKGMITVALLFLVSEGIRQSGTLGQVIKKLLPQGKTTVFKAQLRILPSVAFISAFLNNTPVVVIFAPIIKHWAKSVKLPATKFLIPLSYVTILGGICTLIGTSTNLVVHGMILEAGYEGFTMFELGKVGIFIAIAGIIYLFIFSKRLLPDARPDTAVPDEEVEEGEKLHRVEAVLGARFPGINKKLSDFNFQRHYGAEVKEIKTRNGQRYVDHLEDVVLREGDTLVVMADDTFIPTWGESSVFVLLTNGNDPDTSGKKKRWLALILLVLMIVGATVGELPATKEMFPDIKLDMFFFVCITTIIMAWTNIFPARKYTKYISWDILITIACAFAISKAMVNSGVADCVAGFIIGLSDDYGPHVLLAILFVITNLFTELITNNAAAALAFPLALSISAQLGVSPTPFFVVICMAASASFSTPIGYQTNLIVQGIGNYKFTDFVRIGLPLNIITFLISVILIPLIWNF | not failed
MTVLIIGMGNIGKKLVELGNFEKIYAYDRISKDIPGVVRLDEFQVPSDVSTVVECASPEAVKEYSLQILKNPVNYIIISTSAFADEVFRERFFSELKNSPARVFFPSGAIGGLDVLSSIKDFVKNVRIETIKPPKSLGLDLKGKTVVFEGSVEEASKLFPRNINVASTIGLIVGFEKVKVTIVADPAMDHNIHIVRISSAIGNYEFKIENIPSPENPKTSMLTVYSILRTLRNLESKIIFG | not failed
MRRLLITILIFLLSNAGCCAPVFEIIPLGVYGGLKDGNLSAYLIKAIESKNYTALDGGTLVRGLEVAVDRQSLPSKKVDDLLQKHIPAYLISHAHLDHVMGLVMAQPELREKQTIMAREETMQALQDNIFNWSVWGNFGDSGAIPHLNFQHYQTLPLLQWLAIPDTDLHVKVFPLSHSGMASSAFLIRYKTEYALYFGDTGADRIEKSTNMENIWKEIAPLIRNKQLHAIMLECSFLNSQPDDKLFGHLKPNLFMSELRHLASIVDPFDSRNSLRGLPVVVTHIKPKLADFSNTNEDTEKQVINELSQENDIGVELIKPEQGITLSL | failed
MAKGDVITLNFETFVDSDTQVKVTRLTPTDVICHRNYFYQKCFTQDGKKLLFAGDFDGNRNYYLLNLETQQAVQLTEGKGDNTFGGFISTDERAFFYVKNELNLMKVDLETLEEQVIYTVDEEWKGYGTWVANSDCTKLVGIEILKRDWQPLTSWEKFAEFYHTNPTCRLIKVDIETGELEVIHQDTAWLGHPIYRPFDDSTVGFCHEGPHDLVDARMWLVNEDGSNVRKIKEHAEGESCTHEFWIPDGSAMAYVSYFKGQTDRVIYKANPETLENEEVMVMPPCSHLMSNFDGSLMVGDGCDAPVDVADADSYNIENDPFLYVLNTKAKSAQKLCKHSTSWDVLDGDRQITHPHPSFTPNDDGVLFTSDFEGVPAIYIADVPESYKHLEHHHHHH | not failed
MQKKQVIAVLVAVVGIGIVFSLPKVLVDNEKESVEGAEVTVAHEDSLSEVGKLMAEKHTHKPSDSEQKKLQDFTKNYYSISDKEKKRIFADSILGYYNKFHKYDSVAKYSGEIAMLQPNEKNLLSAADAYMQASDLVSVNEKSAYMDKSRLYYEKALDINASNLDTKSKLAMTYVTTSNPMTGIRILQEVVKEDPRNETAIFNLGYLSMQSRQYNKAVDRFKSLIEINPAHASGTFYLGLSYLELGNKGKANQYFMKAKGLDSDPEFQAIIDSYLKESN | failed
MRNLKELKWSDLKTGIFFLLGLGFAAYLGLVIGKNTSIFTGVTTIKVMTRDVNGLAENNFVSVAGKKIGTVSKLDFSTQNDSLFVVAELKLQNEYANLVTKDSKASIRSLGVLGDKYVDIKAGTGKPVKEGDFIQLVPEDGLSALTDNAKSTIEKLNTLLDKLNNGDGPAGRLISDKQMGEDLQKTVMNLRKSSDELTRVSAELHNGKGLLPKLINDKSLADNTEQTIVNLKNAAAETETLMKQLNEGKGTLGKLNSDPALYNNLSKTLISLDTLLIDLKKRPNRYVRFTLF | failed
MMTALATVLEVQEDIVVVGCQQKTSCNHCSSKDSCGTGIVSKALPGKVHHWAFHTEKKLSVGQLVEIGLPEKNLLQSAAIVYLTPLLFLLFGALLSEWFLSPMIGLGELTTIVVSVLFALGGYQLAKRLSHHIEQKTEQQVSLLRVLGEPVSDTNLGNAAR | failed
NFDTNMFKLENYVKEKYSLESLEIIPNEFDDTPTILSERISQVAAGVLRNLIDDNMKIGFSWGKSLSNLVDLIHSKSVRNVHFYPLAGGPSHIHAKYHVNTLIYEMSRKFHGECTFMNATIVQENKLLADGILQSRYFENLKNSWKDLDIAVVGIGDFSNKGKHQWLDMLTEDDFKELTKVKTVGEICCRFFDSKGKEVYENLQERTIAISLEDLKNIPQSLAVAYGDTKVSSILSVLRANLVNHLITDKNTILKVLEEDGDL | not failed
